Measurements published in paper PMC5526873, “Tonoplast-localized nitrate uptake transporters involved in vacuolar nitrate efflux and reallocation in Arabidopsis” (Scientific Reports, 2017).

Legend:
[1] = target: T1, CHL1 (Arabidopsis thaliana, UniProt Q05085); assay: […]-nitrate uptake in cRNA-injected Xenopus oocytes, mass spectrometry; format: cell-based; settings: pH 5.5, 0.25 mM 15N-nitrate, 12 h; positive control; labelled compound (15N)
T1 construct: gene NPF6.3; cRNA-injected Xenopus laevis oocytes, positive control
T1 sequence (Q05085 1-590): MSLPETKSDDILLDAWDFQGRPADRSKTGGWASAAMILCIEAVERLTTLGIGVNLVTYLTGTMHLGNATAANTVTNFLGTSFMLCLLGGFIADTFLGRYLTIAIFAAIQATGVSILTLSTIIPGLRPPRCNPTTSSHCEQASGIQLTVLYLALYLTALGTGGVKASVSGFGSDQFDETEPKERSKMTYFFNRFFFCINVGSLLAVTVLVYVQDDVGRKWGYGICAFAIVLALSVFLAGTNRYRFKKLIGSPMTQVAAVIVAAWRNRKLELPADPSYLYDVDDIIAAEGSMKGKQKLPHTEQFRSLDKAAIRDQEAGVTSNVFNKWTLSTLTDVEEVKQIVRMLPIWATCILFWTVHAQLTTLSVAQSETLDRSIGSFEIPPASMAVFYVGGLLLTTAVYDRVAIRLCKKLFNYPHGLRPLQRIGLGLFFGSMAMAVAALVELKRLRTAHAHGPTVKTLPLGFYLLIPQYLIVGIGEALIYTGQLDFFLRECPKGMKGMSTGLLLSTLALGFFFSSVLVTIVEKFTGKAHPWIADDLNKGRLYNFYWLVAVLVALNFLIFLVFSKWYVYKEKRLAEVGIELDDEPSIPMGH

[2] = substrate: O=[N+]([O-])O; assay: cells, lysate or membranes; format: cell-based, Arabidopsis thaliana; settings: pH 5.5, 1.5 h, 0.25-30 mM, labelled compound (15N)

## O=[N+]([O-])O [nitrate]
[1]
  15N-nitrate uptake in cRNA-injected Xenopus oocytes, mass spectrometry: CHL1-injected oocytes still showed high uptake activity

B1: NPF5.12 (Arabidopsis thaliana) (protein)
chain: MSTSIGDNETGAIVSNENVEFSVDFRGNPSIRSSSGAWKSSGFTMCAEVAEKFAYFGIASNLITYFTEALGESTAVAASNVNLWLGTAAFLPLIWGSIADSFLGRFRTILLTSSFYIMGLGLLTFSATIPSLCNDQETRESCVSQVKVIIFFCALYLIALGEGGFKVCLRAFGADQFDEQDPNESKAKSSYFNWLYFAISIGILTTRLVTNYVQENLSWALGYAIPCLSMMLALFLFLLGIKTYRFSTGGEGRQGKKHDNPFVRIGRVFVAAARNRRQTPSDTCLLLPNESTKKFRFLDRAVISCDSYEVEEAKAVLSLIPIWLCSLVFGIVFAQSPTFFTKQGSTMDRSISSTLQVPAATLQCFISLAILVFIPIYDRLFVPIARSITRKPAGITTLQRISTGIFLSIISMVIAALVEMKRLKTARDHGLVDSPKATVPMSVCWLIPQYILFGVSDVFTMVGLQEFFYGEVPPQLRSMGLALYLSIIGIGNFLSSFMVSVIEEATSQSGQVSWFSNNLNQAHLDYFYWLLACLSSLAFIFTVYFAKSYLYNSPK
notes: cDNA in oocyte vector pOO2, cRNA-injected Xenopus laevis oocytes; EYFP fusion used for localization
[2]
  Km: 4840 µM

B2: NPF5.16 (Arabidopsis thaliana) (protein)
chain: MAIAEEEAALIEDSVSDSVDHRGLPAGKSSTGGWRSAWYIIGVEVGERFAYFGIGSNLITYLTGPLGQSTATAAVNVNTWSGTASILPVLGAFIADAYLGRYRTIVVASLIYILGLGLLTLSSILILMGLSEQRQHNRNASAKPFFWVNILFFCSLYLVAIGQGGHKPCVQAFGADQFDVGDPKERISRGSFFNWWFLSLSAGITLSIIVVVYVQDNVNWALGFGIPCLFMVMALALFLFGRKTYRYPRGDREGKNNAFARIGRVFLVAFKNRKLKLTHSGQLEVGSYKKCKGQLEFLAKALLPGEGGVEPCSSRDVEDAMALVRLIPIWITSVVSTIPYAQYATFFTKQGVTVDRKILPGFEIPPASFQALIGLSIFISVPTYERVFLPLARLITKKPSGITMLQRIGAGMVLSSLNMVVAALVEMKRLETAKEHGLVDRPDATIPMSIWWFVPQYLLLGMIDVFSLVGTQEFFYDQVPTELRSIGLALSLSAMGLASFLSGFLITVINWATGKNGGDSWFNTNLNRAHVDYFYWLLAAFTAIGFLAFLLLSRLYVYRRVDQV
notes: as for B1
[2]
  Km: 2910 µM

B3: NPF5.11 (Arabidopsis thaliana) (protein)
chain: MAITYSSADELGNTTEGFLEIRENTSGGWKSARLIIVVQMAERFAYFGIASNLIMYLTGPLGESTAAAAANVNAWTGTVAFLPLLGGFLADSYLGRFRTIIISSSLYILGLGLLSFSTMIPSHQSKDSNQLQETIFFFSLYLVAIGQGGYNPCIKVFGADQFDGNDHKEARDKSSFFNWLMFGNCISILTTRLVSTYIQENLSWSLGFGIPSVSMLLSLFLFLLGTTSYRFSTERVGKKNPFARISRVFMEALKNRRQPDLDIANANANETLLLLAHQSSKQFRFLDRAAISCELAEIEEAKAVLRLIPIWITSVVYTIVHAQSPTFFTKQGATMDRSISPGLLVPAATLQSFINLSVVVFIPIYDRLLVPFARSFTQNSSGITTLQRIGTGIFLSILAMVLAALVETKRLQAARDELSIPMSVWWLIPQYVIFGVSDMFTMVGLQEFFYGQVPSELRSVGMALNLSIYGAGNYLSSFMISVIDKITNQYGQRSWFDNDLDQAHLDYFYWLLACLGFIGFAFYLWFAKSYVYSRSNTF
notes: as for B1
[2]
  Km: 2570 µM
